Here are results for 17 molecules from patent publication US20220144961A1 (XYENCE THERAPEUTICS, published 2022).

First the molecules themselves.
T1: mouse CD27 (mouse, UniProt P41272 24-182, limits assumed)
T1 construct: The construct is not described; also called murine CD27
T1 sequence (looked up): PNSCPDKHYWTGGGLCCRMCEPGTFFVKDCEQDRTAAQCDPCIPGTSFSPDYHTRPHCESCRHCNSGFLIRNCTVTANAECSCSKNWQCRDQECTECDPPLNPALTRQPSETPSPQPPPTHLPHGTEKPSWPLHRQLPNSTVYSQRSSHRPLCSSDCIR

B1: TP21 (antibody, V domains shown)
VH: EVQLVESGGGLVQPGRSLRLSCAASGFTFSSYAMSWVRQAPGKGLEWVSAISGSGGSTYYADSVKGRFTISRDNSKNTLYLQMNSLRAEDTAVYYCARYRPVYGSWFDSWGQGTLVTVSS
VL: QSVVTQPPSVSGAPGQRVTISCTGSSSNIGAGYDVHWYQQLPGTAPKLLIYGNSNRPSGVPDRFSGSKSGTSASLAITGLQAEDEADYYCQSYDSSLSGYVFGTGTKVTVL
notes: Clone of the screen
B2: TP22 (antibody, V domains shown)
VH: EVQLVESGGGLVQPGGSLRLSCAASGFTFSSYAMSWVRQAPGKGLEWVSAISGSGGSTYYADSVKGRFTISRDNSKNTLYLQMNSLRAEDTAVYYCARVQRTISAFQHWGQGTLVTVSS
VL: B1 VL
notes: Clone of the screen
B3: TP17 (antibody, V domains shown)
VH: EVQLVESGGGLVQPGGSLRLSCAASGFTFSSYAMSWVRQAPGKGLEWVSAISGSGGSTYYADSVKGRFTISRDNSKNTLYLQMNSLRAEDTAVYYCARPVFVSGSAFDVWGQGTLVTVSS
VL: B1 VL
notes: Clone of the screen
B4: TP28 (antibody, V domains shown)
VH: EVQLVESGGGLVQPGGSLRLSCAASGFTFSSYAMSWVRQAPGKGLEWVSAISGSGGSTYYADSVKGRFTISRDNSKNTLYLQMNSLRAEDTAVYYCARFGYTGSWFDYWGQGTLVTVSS
VL: B1 VL with N53K
notes: Clone of the screen
B5: TP15 (antibody, V domains shown)
VH: QVQLVQSGAEVKKPGASVKVSCKASGYTFTSYGISWVRQAPGQGLEWMGWISAYNGNTNYAQKLQGRVTMTTDESTSTAYMELSSLRSEDTAVYYCARGGAGHYDYFDYWGQGTLVTVSS
VL: QSVLTQPPSVSAAPGQKVTISCSGSSSNIGNNYVSWYQQLPGTAPKLLIYDNNKRPSGIPDRFSGSNSGNTATLTISGTQAMDEADYYCQAWDSSTAWVFGGGTKLTVL
notes: Clone of the screen
B6: TP24 (antibody, V domains shown)
VH: QVQLVESGGGVVQPGRSLRLSCAASGFTFSSYAMHWVRQAPGKGLEWVAVISYDGSNKYYADSVKGRFTISRDNSKNTLYLQMNSLRAEDTAVYYCARPVRTISAFDVWGQGTLVTVSS
VL: QSVVTQPPSVSGAPGQRVTISCTGSSSNIGAGYDVHWYQQLPGTAPKLLIYGNSNRPSGVPDRFSGSKSGTSASLAITGLQAEDEADYYCGTWDSSLSAGYVFGTGTKVTVL
notes: Clone of the screen
B7: TP1 (antibody, V domains shown)
VH: QVQLVESGGGVVQPGRSLRLSCAASGFTFSSYAMHWVRQAPGKGLEWVAVISYDGSNKYYADSVKGRFTISRDNSKNTLYLQMNSLRAEDTAVYYCARAGSSGYAYYGMDVWGQGTLVTVSS
VL: not shown
notes: Clone of the screen; also called TP01
B8: TP14 (antibody, V domains shown)
VH: QVQLVQSGAEVKKPGASVKVSCKASGYTFTSYYMHWVRQAPGQGLEWMGIINPSGGSTSYAQKFQGRVTMTRDTSTSTVYMELSSLRSEDTAVYYCARYDHAGGTPFDLWGQGTLVTVSS
VL: QSVLTQPPSVSAAPGQKVTISCSGSSSNIGNNYVSWYQQLPGTAPKLLIYGNSNRPSGVPDRFSGSKSGTSASLAITGLQAEDEADYYCQSYDSSLSGYVFGTGTKVTVL
notes: Clone of the screen
B9: TP5 (antibody, V domains shown)
VH: B6 VH with P99V, V100F, R101Y, T102G, I103Y, S104A, A105P
VL: DIQMTQSPSTLSASVGDRVTITCRASQSISSWLAWYQQKPGKAPKLLIYDASSLESGVPSRFSGSGSGTEFTLTISSLQPDDFATYYCQQSYSTPYTFGQGTKLEIK
notes: Clone of the screen; also called TP05
B10: TP9 (antibody, V domains shown)
VH: QVQLVESGGGVVQPGRSLRLSCAASGFTFSSYAMHWVRQAPGKGLEWVAVISYDGSNKYYADSVKGRFTISRDNSKNTLYLQMNSLRAEDTAVYYCARAVPYVYYGMDVWGQGTLVTVSS
VL: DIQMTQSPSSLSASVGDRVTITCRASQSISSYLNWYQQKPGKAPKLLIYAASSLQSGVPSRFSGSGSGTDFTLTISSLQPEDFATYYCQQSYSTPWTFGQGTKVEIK
notes: Clone of the screen; also called TP09
B11: TP23 (antibody, V domains shown)
VH: B5 VH with E74T, S84R, E89D
VL: B1 VL
B12: TP29 (antibody, V domains shown)
VH: EVQLVESGGGVVQPGRSLRLSCAASGFTFSNAWMSWVRQAPGKGLEWVSAISGSGGSTYYADSVKGRFTISRDNSKNTLYLQMNSLRAEDTAVYYCARRALSLSYFDYWGQGTLVTVSS
VL: B1 VL
B13: TP10 (antibody, V domains shown)
VH: QVQLVESGGGVVQPGRSLRLSCAASGFTFSSYAMHWVRQAPGKGLEWVAVISYDGSNKYYADSVKGRFTISRDNSKNTLYLQMNSLRAEDTAVYYCARSGRATSYSYYGMDVWGQGTLVTVSS
VL: not shown
B14: TP6 (antibody, V domains shown)
VH: B10 VH with A99G, V100Y, P101Q, Y102G, V103G, Y105S, G106N, M107F, V109L
VL: B9 VL with E70D, D81E
notes: also called TP06
B15: TP11 (antibody, V domains shown)
VH: QVQLVESGGGVVQPGRSLRLSCAASGFTFSSYAMHWVRQAPGKGLEWVAVISYDGSNKYYADSVKGRFTISRDNSKNTLYLQMNSLRAEDTAVYYCARGVSGSYARGFDVWGQGTLVTVSS
VL: B9 VL with D81E, Y96W, L104V
B16: TP25 (antibody, V domains shown)
VH: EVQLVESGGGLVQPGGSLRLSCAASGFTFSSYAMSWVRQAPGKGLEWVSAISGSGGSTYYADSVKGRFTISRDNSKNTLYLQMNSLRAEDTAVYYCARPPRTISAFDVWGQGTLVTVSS
VL: B1 VL
B17: TP31 (antibody, V domains shown)
VH: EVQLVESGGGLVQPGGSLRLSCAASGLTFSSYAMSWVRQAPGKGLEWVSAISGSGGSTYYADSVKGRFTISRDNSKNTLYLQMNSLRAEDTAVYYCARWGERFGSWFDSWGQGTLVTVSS
VL: B1 VL

Positions count from the first letter of the chain named.

By Kd is commonly meant a measure of binding affinity in units of concentration. High values mean a looser complex, low ones a tighter complex. As usually defined, the EC50 (read off the curve) is the midpoint of the concentration-response curve.

The target of one test is T2, human CD27 (human, UniProt P26842 21-192, limits assumed).
T2 construct: The construct (soluble form, tags) is not described; also called TNFRSF7
T2 sequence (P26842 21-192 limits assumed): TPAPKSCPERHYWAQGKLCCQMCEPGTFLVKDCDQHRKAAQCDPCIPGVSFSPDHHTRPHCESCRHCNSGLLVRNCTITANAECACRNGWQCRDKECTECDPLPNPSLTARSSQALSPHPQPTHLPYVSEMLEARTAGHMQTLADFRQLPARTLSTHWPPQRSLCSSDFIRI
As to the kind of experiment: screen of individual clones, heat map of log (Binding MFI), human CD27 at 25 nM.
With B1, the binding result is “binds”.

For the molecule B2, the binding result is reported as “binds”.

Consider B3, for which the binding result was “binds”. On the same count and under the same terms, the same measure for B4: “binds”; for B5: “binds”; for B6: “binds”.

Turning to B7, the binding result is recorded as “binds”.

Consider B8, for which the binding result was “binds”.

Take B9: the binding result is listed as “binds”. Take B10: the binding result is “binds”.

The target of another test is T1, mouse CD27. As to the kind of experiment: Kd table for the mAb titration on mouse CD27 (OD readout, Figure 4 B); method not given.
For B11, the affinity, expressed as Kd, was 40 nM. As to B12, binding was put at a Kd of 0.7 nM. Still for that read-out and setting: the same measure for B13: 0.9 nM. Consider B14, for which binding was characterised by a dissociation constant (Kd) of 8 nM. As to B15, the affinity, expressed as Kd, was 0.5 nM.

For another test, the target named is T2, human CD27. As to the kind of experiment: mAb titration on human CD27, OD readout.
Turning to B16, the “EC50 (read off the curve)” value is about 0.1 nM.

Take B14: the concentration giving a half-maximal response (EC50 (read off the curve)) was about 0.3 nM.

A further test deals with T2, human CD27. As to the kind of experiment: Kd table for the mAb titration on human CD27 (OD readout, Figure 4 A); method not given.
B11 returned a Kd of 5 nM. On the same count and under the same terms, the same measure for B16: 0.1 nM; for B12: 0.3 nM. B17 returned a Kd of 1.4 nM.

Turning to B13, binding was characterised by a dissociation constant (Kd) of 0.4 nM.

B14: the Kd was 0.6 nM. Take B15: binding was put at a Kd of 0.2 nM.

For another test, the target named is T1, mouse CD27. As to the kind of experiment: screen of individual clones, heat map of log (Binding MFI), mouse CD27 at 25 nM.
Take B2: the binding result was “binds”.
